This passage reports percent decrease of the ELISA interaction compared to RPA results from publication PMC2912413.

For this test, the target named is alternative Replication Protein A complex (RPA1, RPA4 and RPA3) (human) (UniProt P27694). The test can be described thus: ELISA. On the technique in general: An ELISA detects its analyte on a solid surface through an enzyme-linked reagent.
Sequence of alternative Replication Protein A complex (RPA1, RPA4 and RPA3) (human) (P27694 whole entry, chain 1 of 3): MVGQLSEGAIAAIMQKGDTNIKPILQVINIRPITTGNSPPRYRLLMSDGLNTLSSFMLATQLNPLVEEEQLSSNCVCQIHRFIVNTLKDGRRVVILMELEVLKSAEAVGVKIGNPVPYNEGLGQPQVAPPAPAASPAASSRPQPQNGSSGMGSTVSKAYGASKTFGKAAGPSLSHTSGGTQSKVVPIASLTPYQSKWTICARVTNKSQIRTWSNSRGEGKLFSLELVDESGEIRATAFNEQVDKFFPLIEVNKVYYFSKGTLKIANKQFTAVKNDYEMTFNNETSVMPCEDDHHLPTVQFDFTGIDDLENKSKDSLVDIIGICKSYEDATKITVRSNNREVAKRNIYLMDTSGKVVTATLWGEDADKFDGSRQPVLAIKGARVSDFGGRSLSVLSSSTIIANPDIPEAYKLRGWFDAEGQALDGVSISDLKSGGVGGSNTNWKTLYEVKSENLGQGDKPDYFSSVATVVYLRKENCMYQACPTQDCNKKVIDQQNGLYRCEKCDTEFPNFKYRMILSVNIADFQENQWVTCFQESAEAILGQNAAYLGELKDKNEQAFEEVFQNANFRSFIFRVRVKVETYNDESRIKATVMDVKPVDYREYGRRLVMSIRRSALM
Sequence of alternative Replication Protein A complex (RPA1, RPA4 and RPA3) (human) (Q13156 whole entry, chain 2 of 3, further chain): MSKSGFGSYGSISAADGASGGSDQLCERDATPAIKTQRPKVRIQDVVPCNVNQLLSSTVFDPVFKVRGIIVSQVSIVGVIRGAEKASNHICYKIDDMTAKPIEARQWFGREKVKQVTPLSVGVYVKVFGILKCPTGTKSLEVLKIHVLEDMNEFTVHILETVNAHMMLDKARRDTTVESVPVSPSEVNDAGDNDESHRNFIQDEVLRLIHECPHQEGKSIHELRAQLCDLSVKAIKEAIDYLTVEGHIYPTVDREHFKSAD
Sequence of alternative Replication Protein A complex (RPA1, RPA4 and RPA3) (human) (P35244 whole entry, chain 3 of 3, further chain): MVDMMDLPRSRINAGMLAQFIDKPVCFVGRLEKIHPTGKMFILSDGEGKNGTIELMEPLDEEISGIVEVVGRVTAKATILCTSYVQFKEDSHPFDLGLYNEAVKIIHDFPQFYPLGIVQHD

On to “human DNA polymerase α/primase complex (from UniProt P09884 1-1462; Q14181 1-598; P49643 1-509; P49642 1-420)”, for which the percent decrease of the ELISA interaction compared to RPA is 75%.
